Reference: publication PMC11340043

Molecular target: human LIFR-his (human) (UniProt P42702)
Sequence (P42702 45-833): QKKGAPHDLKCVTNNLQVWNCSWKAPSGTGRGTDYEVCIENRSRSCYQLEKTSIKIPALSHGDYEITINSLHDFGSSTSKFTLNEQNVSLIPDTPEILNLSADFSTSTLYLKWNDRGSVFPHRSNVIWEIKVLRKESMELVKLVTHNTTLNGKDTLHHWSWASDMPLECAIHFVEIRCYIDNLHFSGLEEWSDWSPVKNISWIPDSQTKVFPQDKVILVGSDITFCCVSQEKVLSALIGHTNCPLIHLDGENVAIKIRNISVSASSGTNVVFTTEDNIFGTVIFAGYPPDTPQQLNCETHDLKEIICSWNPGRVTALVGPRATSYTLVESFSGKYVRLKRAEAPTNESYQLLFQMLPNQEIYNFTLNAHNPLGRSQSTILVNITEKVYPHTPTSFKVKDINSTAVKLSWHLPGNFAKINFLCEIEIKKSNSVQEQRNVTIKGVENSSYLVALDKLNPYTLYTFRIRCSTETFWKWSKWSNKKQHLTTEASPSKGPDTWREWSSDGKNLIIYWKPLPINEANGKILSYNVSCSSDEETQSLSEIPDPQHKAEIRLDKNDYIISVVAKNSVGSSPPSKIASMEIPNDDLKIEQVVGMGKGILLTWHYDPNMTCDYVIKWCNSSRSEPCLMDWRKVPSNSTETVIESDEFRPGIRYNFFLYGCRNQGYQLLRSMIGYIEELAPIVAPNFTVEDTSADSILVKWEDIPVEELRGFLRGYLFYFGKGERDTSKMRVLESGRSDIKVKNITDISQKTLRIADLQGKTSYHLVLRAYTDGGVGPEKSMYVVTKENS

human LIF, sequence (P15018 23-202): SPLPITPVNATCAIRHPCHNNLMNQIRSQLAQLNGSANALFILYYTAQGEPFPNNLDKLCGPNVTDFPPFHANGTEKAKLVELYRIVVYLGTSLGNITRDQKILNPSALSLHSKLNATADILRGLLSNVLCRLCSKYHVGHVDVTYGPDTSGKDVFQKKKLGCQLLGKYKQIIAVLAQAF

human LIF (from UniProt P15018 23-202) (ligand)
LIF-induced p-STAT3 (Tyr705) in U266 and HCT116 cells, western blot; dose-dependent inhibition by antibody 1G11, inhibition rate at 2 µg/ml 1G11: > 90%
